Test results: article doi:10.1101/099705
Where “and” joins values, the source holds several entries; their conditions need not be identical. Equal values may be shown once. Read-outs that look alike come from different tables or passages of the source.

What was measured:
[1] = molecular target: TbMP18-FL (T. brucei (strain Lister 427)); test: SEC
[2] = molecular target: TbMP18-FL (T. brucei (strain Lister 427))
[3] = molecular target: TbMP24-OB (T. brucei (strain Lister 427)); test: SEC
[4] = molecular target: TbMP42-FL (T. brucei (strain Lister 427)); test: SEC
[5] = molecular target: TbMP42-OB (T. brucei (strain Lister 427)); test: SEC
[6] = molecular target: TbMP81-FL (T. brucei (strain Lister 427)); test: SEC
[7] = molecular target: TbMP81-OB (T. brucei (strain Lister 427)); test: SEC
[8] = molecular target: TbMP18-FL (T. brucei (strain Lister 427)); test: SEC; remark: listed apart in the source

TbMP18-FL (natural protein)
stoichiometry N [1]: 4

TbMP24-FL (natural protein)
stoichiometry N (TbMP24-FL:TbMP18-FL (molar ratio)) [1]: 2 and 1.5
stoichiometry N (TbMP24-FL:TbMP18-FL (molar ratio)) [2]: 1.1

TbMP24-OB (domain or fragment)
stoichiometry N [3]: 3
stoichiometry N (TbMP24-OB:TbMP18-FL (molar ratio)) [1]: 2

TbMP42-FL (natural protein)
stoichiometry N [4]: 3

TbMP42-OB (domain or fragment)
stoichiometry N [5]: 3

TbMP81-FL (natural protein)
stoichiometry N [6]: 2

TbMP81-OB (domain or fragment)
stoichiometry N [7]: 2

B1: TbMP63-OB (domain or fragment)
chain: SAIGASWAETELIPHAQCVSNITIVGRVLDVSQASENVSHVTVFVEGERSGEEETLTLCCFGEVSQKIRGTLKRNATIFASGTLRLHPVYEASNNKYYVSPVVHVSMPTGTLAVIT
stoichiometry N (TbMP63-OB:TbMP18-FL (molar ratio)) [8]: 1 and 1.5
stoichiometry N (TbMP63-OB:TbMP18-FL (molar ratio)) [2]: 0.67
